Where a chain is given by its changes, count along the chain named. Names and notes keep the numbering of the source.
Assays:
[1] = biological target: T1, Peroxiredoxin 6 (PRDX6), native, human kidney (human (endogenous in human kidney)), P30041; assay: non-reducing SDS-PAGE with immunoblot; conditions: remark: other sources report otherwise
T1 chain: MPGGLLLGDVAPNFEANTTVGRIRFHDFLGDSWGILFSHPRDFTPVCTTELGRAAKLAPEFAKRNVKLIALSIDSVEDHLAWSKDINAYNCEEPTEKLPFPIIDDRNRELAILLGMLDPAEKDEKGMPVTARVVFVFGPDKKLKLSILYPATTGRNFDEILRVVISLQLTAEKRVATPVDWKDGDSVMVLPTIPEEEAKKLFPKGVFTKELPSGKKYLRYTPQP

[2] = biological target: the molecule itself; assay: non-reducing SDS-PAGE with Coomassie stain
[3] = biological target: the molecule itself; assay: non-reducing SDS-PAGE with immunoblot

B1: Peroxiredoxin 6 (PRDX6), native, human kidney, P30041 1-224 (natural protein)
chain: T1 chain
stoichiometry N [1]: 2

B2: N-terminal histidine-tagged PRDX6 with cysteine 47 changed to alanine (HisPRDX6-C47A) (natural protein, UniProt P30041 1-224, looked up)
chain: T1 chain with C47A
stoichiometry N [2]: 2

B3: Peroxiredoxin 6 (PRDX6), native, mouse kidney (natural protein, mouse (endogenous in mouse kidney), UniProt O08709 1-224, looked up)
chain: MPGGLLLGDEAPNFEANTTIGRIRFHDFLGDSWGILFSHPRDFTPVCTTELGRAAKLAPEFAKRNVKLIALSIDSVEDHLAWSKDINAYNGETPTEKLPFPIIDDKGRDLAILLGMLDPVEKDDNNMPVTARVVFIFGPDKKLKLSILYPATTGRNFDEILRVVDSLQLTGTKPVATPVDWKKGESVMVVPTLSEEEAKQCFPKGVFTKELPSGKKYLRYTPQP
stoichiometry N [3]: 2

— paper PMC4705439 (Kidney international, 2016)
